Assay results reported in patent US20250092108A1 (published 2025).

What was measured:
human CD25 (IL-2Rα) [1] = target: T1, human CD25 (IL-2Rα) (human, UniProt P01589 22-213); experiment: Biacore; pH 7.4
T1 chain: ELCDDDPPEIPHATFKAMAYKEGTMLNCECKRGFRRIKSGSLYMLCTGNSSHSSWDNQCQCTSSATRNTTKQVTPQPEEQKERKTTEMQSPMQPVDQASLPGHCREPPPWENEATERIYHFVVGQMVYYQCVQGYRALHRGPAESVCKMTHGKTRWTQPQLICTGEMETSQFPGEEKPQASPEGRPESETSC

human CD25 (IL-2Rα) [2] = target: T1, human CD25 (IL-2Rα); experiment: Biacore; pH 6.0
human CD25 (IL-2Rα) [3] = target: T1, human CD25 (IL-2Rα); experiment: Biacore; pH 6.0
human CD25 (IL-2Rα) [4] = target: T1, human CD25 (IL-2Rα); experiment: Biacore; pH 7.4
human CD25 (IL-2Rα) [5] = target: T1, human CD25 (IL-2Rα); experiment: Octet
CD122:CD132 = experiment: Octet

| Binder | Kd (human CD25 (IL-2Rα) [3]) | Kd (human CD25 (IL-2Rα) [4]) | also measured |
| --- | --- | --- | --- |
| 14192 R38E T41K C125S (protein) APTSSSTKKTQLQLEHLLLDLQMILNGINNYKNPKLTEMLKFKFYMPKKATELKHLQCLEEELKPLEEVLNLAQSKNFHLRPRDLISNINVIVLELKGSETTFMCEYADETATIVEFLNRWITFSQSIISTLT | – | – | Kd (human CD25 (IL-2Rα) [1]): 172 nM; Kd (human CD25 (IL-2Rα) [2]): 31.1 nM |
| XENP14217 (R38P T41R C125S) (protein) APTSSSTKKTQLQLEHLLLDLQMILNGINNYKNPKLTPMLRFKFYMPKKATELKHLQCLEEELKPLEEVLNLAQSKNFHLRPRDLISNINVIVLELKGSETTFMCEYADETATIVEFLNRWITFSQSIISTLT | 1710 nM | – | – |
| XENP14206 (T41E F42Y C125S) (protein) APTSSSTKKTQLQLEHLLLDLQMILNGINNYKNPKLTRMLEYKFYMPKKATELKHLQCLEEELKPLEEVLNLAQSKNFHLRPRDLISNINVIVLELKGSETTFMCEYADETATIVEFLNRWITFSQSIISTLT | 30300 nM | – | – |
| XENP14208 (T41M F42Y C125S) (protein) APTSSSTKKTQLQLEHLLLDLQMILNGINNYKNPKLTRMLMYKFYMPKKATELKHLQCLEEELKPLEEVLNLAQSKNFHLRPRDLISNINVIVLELKGSETTFMCEYADETATIVEFLNRWITFSQSIISTLT | 83 nM | – | – |
| 14217 R38P T41R C125S (protein) APTSSSTKKTQLQLEHLLLDLQMILNGINNYKNPKLTPMLRFKFYMPKKATELKHLQCLEEELKPLEEVLNLAQSKNFHLRPRDLISNINVIVLELKGSETTFMCEYADETATIVEFLNRWITFSQSIISTLT | – | 326 nM | – |
| 14190 R38Q T41K C125S (protein) APTSSSTKKTQLQLEHLLLDLQMILNGINNYKNPKLTQMLKFKFYMPKKATELKHLQCLEEELKPLEEVLNLAQSKNFHLRPRDLISNINVIVLELKGSETTFMCEYADETATIVEFLNRWITFSQSIISTLT | – | – | Kd (human CD25 (IL-2Rα) [1]): 98.3 nM; Kd (human CD25 (IL-2Rα) [2]): 489 nM |
| 14214 R38N T41R C125S (protein) APTSSSTKKTQLQLEHLLLDLQMILNGINNYKNPKLTNMLRFKFYMPKKATELKHLQCLEEELKPLEEVLNLAQSKNFHLRPRDLISNINVIVLELKGSETTFMCEYADETATIVEFLNRWITFSQSIISTLT | – | 149 nM | – |
| XENP14207 (T41D F42Y C125S) (protein) APTSSSTKKTQLQLEHLLLDLQMILNGINNYKNPKLTRMLDYKFYMPKKATELKHLQCLEEELKPLEEVLNLAQSKNFHLRPRDLISNINVIVLELKGSETTFMCEYADETATIVEFLNRWITFSQSIISTLT | 319 nM | – | – |
| XENP14216 (R38V T41R C125S) (protein) APTSSSTKKTQLQLEHLLLDLQMILNGINNYKNPKLTVMLRFKFYMPKKATELKHLQCLEEELKPLEEVLNLAQSKNFHLRPRDLISNINVIVLELKGSETTFMCEYADETATIVEFLNRWITFSQSIISTLT | 128 nM | – | – |
| XENP14209 (T41Q F42Y C125S) (protein) APTSSSTKKTQLQLEHLLLDLQMILNGINNYKNPKLTRMLQYKFYMPKKATELKHLQCLEEELKPLEEVLNLAQSKNFHLRPRDLISNINVIVLELKGSETTFMCEYADETATIVEFLNRWITFSQSIISTLT | 2630 nM | – | – |
| 14208 T41M F42Y C125S (protein) APTSSSTKKTQLQLEHLLLDLQMILNGINNYKNPKLTRMLMYKFYMPKKATELKHLQCLEEELKPLEEVLNLAQSKNFHLRPRDLISNINVIVLELKGSETTFMCEYADETATIVEFLNRWITFSQSIISTLT | – | 81 nM | – |
| 14209 T41Q F42Y C125S (protein) APTSSSTKKTQLQLEHLLLDLQMILNGINNYKNPKLTRMLQYKFYMPKKATELKHLQCLEEELKPLEEVLNLAQSKNFHLRPRDLISNINVIVLELKGSETTFMCEYADETATIVEFLNRWITFSQSIISTLT | – | 5950 nM | – |
| 14216 R38V T41R C125S (protein) APTSSSTKKTQLQLEHLLLDLQMILNGINNYKNPKLTVMLRFKFYMPKKATELKHLQCLEEELKPLEEVLNLAQSKNFHLRPRDLISNINVIVLELKGSETTFMCEYADETATIVEFLNRWITFSQSIISTLT | – | 214 nM | – |
| XENP14213 (R38Q F42Y C125S) (protein) APTSSSTKKTQLQLEHLLLDLQMILNGINNYKNPKLTQMLTYKFYMPKKATELKHLQCLEEELKPLEEVLNLAQSKNFHLRPRDLISNINVIVLELKGSETTFMCEYADETATIVEFLNRWITFSQSIISTLT | 2430 nM | – | – |
| 14194 R38N T41Q C125S (protein) APTSSSTKKTQLQLEHLLLDLQMILNGINNYKNPKLTNMLQFKFYMPKKATELKHLQCLEEELKPLEEVLNLAQSKNFHLRPRDLISNINVIVLELKGSETTFMCEYADETATIVEFLNRWITFSQSIISTLT | – | – | Kd (human CD25 (IL-2Rα) [2]): 84.6 nM |
| XENP14214 (R38N T41R C125S) (protein) APTSSSTKKTQLQLEHLLLDLQMILNGINNYKNPKLTNMLRFKFYMPKKATELKHLQCLEEELKPLEEVLNLAQSKNFHLRPRDLISNINVIVLELKGSETTFMCEYADETATIVEFLNRWITFSQSIISTLT | 57200 nM | – | – |
| 14215 R38N T41K C125S (protein) APTSSSTKKTQLQLEHLLLDLQMILNGINNYKNPKLTNMLKFKFYMPKKATELKHLQCLEEELKPLEEVLNLAQSKNFHLRPRDLISNINVIVLELKGSETTFMCEYADETATIVEFLNRWITFSQSIISTLT | – | 75.4 nM | – |
| 14202 R38Q T41S C125S (protein) APTSSSTKKTQLQLEHLLLDLQMILNGINNYKNPKLTQMLSFKFYMPKKATELKHLQCLEEELKPLEEVLNLAQSKNFHLRPRDLISNINVIVLELKGSETTFMCEYADETATIVEFLNRWITFSQSIISTLT | – | – | Kd (human CD25 (IL-2Rα) [1]): 1240 nM; Kd (human CD25 (IL-2Rα) [2]): 1710 nM |
| 14213 R38Q F42Y C125S (protein) APTSSSTKKTQLQLEHLLLDLQMILNGINNYKNPKLTQMLTYKFYMPKKATELKHLQCLEEELKPLEEVLNLAQSKNFHLRPRDLISNINVIVLELKGSETTFMCEYADETATIVEFLNRWITFSQSIISTLT | – | 1110 nM | – |
| 14191 R38Q T41Q C125S (protein) APTSSSTKKTQLQLEHLLLDLQMILNGINNYKNPKLTQMLQFKFYMPKKATELKHLQCLEEELKPLEEVLNLAQSKNFHLRPRDLISNINVIVLELKGSETTFMCEYADETATIVEFLNRWITFSQSIISTLT | – | – | Kd (human CD25 (IL-2Rα) [1]): 196 nM; Kd (human CD25 (IL-2Rα) [2]): 2470 nM |
| 14207 T41D F42Y C125S (protein) APTSSSTKKTQLQLEHLLLDLQMILNGINNYKNPKLTRMLDYKFYMPKKATELKHLQCLEEELKPLEEVLNLAQSKNFHLRPRDLISNINVIVLELKGSETTFMCEYADETATIVEFLNRWITFSQSIISTLT | – | 139 nM | – |
| 14193 R38Q T41R C125S (protein) APTSSSTKKTQLQLEHLLLDLQMILNGINNYKNPKLTQMLRFKFYMPKKATELKHLQCLEEELKPLEEVLNLAQSKNFHLRPRDLISNINVIVLELKGSETTFMCEYADETATIVEFLNRWITFSQSIISTLT | – | – | Kd (human CD25 (IL-2Rα) [1]): 458 nM; Kd (human CD25 (IL-2Rα) [2]): 533 nM |
| 14206 T41E F42Y C125S (protein) APTSSSTKKTQLQLEHLLLDLQMILNGINNYKNPKLTRMLEYKFYMPKKATELKHLQCLEEELKPLEEVLNLAQSKNFHLRPRDLISNINVIVLELKGSETTFMCEYADETATIVEFLNRWITFSQSIISTLT | – | 280 nM | – |
| XENP26109 (Fc fusion) chain 1: EPKSSDKTHTCPPCPAPPVAGPSVFLFPPKPKDTLMISRTPEVTCVVVDVKHEDPEVKFNWYVDGVEVHNAKTKPREEEYNSTYRVVSVLTVLHQDWLNGKEYKCKVSNKALPAPIEKTISKAKGQPREPQVYTLPPSREEMTKNQVSLTCDVSGFYPSDIAVEWESDGQPENNYKTTPPVLDSDGSFFLYSKLTVDKSRWEQGDVFSCSVMHEALHNHYTQKSLSLSPGK chain 2: APASSSTKKTQLQLEHLLLNLQMILNGINNYKNPKLTRMLTFKFYMPKKATELKHLQCLEEELKPLEEVLKLAQSKNFHLRPRDLISNINVIVLELKGSETTFMCEYADETATIVEFLNRWITFSQSIISTLTEPKSSDKTHTCPPCPAPPVAGPSVFLFPPKPKDTLMISRTPEVTCVVVDVKHEDPEVKFNWYVDGVEVHNAKTKPREEQYNSTYRVVSVLTVLHQDWLNGKEYKCKVSNKALPAPIEKTISKAKGQPREPQVYTLPPSREQMTKNQVKLTCLVKGFYPSDIAVEWESNGQPENNYKTTPPVLDSDGSFFLYSKLTVDKSRWQQGNVFSCSVMHEALHNHYTQKSLSLSPGK | – | – | Kd (human CD25 (IL-2Rα) [5]): 28.5 nM; Kd (CD122:CD132): 57.3 nM |
